Experimental data: US8129149B1, “Rapid and sensitive method to measure endonuclease activity” (The United States of America as represented by the …, priority 2008, dated 2012)

Biological target: T1, Recombinant APE1 (Homo sapiens, UniProt P27695)
T1 construct: purchased NEW ENGLAND BIOLABS
Test: APE activity assay: APE cleavage of the substrate oligonucleotide, detected by Taq polymerase extension and real-time PCR
Type: biochemical
Details: well A04; Substrate DNA and Template DNA with APE
Method: Recombinant APE1 at 10,000 units/ml in 50% glycerol was purchased from NEW ENGLAND BIOLABS. One unit is defined as the amount of enzyme required to hydrolyze 20 pmol of a 34 bp oligonucleotide duplex containing a single AP site in a 10 ul reaction volume over one hour at 37° C. The reaction buffer consisted of 50 mM potassium acetate, 20 mM Tris-acetate, 10 mM magnesium acetate (pH 7.9) and 1 mM dithiothreitol.
All oligonucleotides, primers and probes were purchased from GENE LINK, INC. (Hawthorne, N.Y.). The two oligonucleotides that are specific to this technique, are designated the substrate and the template. The oligonucleotide with sequence 5′-GGGGTTTTGGGTTTTTTTAATTTTAGGTTGTGGTTGTGGTTGTCGGXGACGTGTTGGTTTTT/3ddC/3′ (SEQ. ID No. 1) serving as the substrate for APE contains the tetrahydrofuran, an abasic analog (X), and a 3′ dideoxy-C to prevent extension by DNA polymerase. […]
Real-time PCR was performed using a BIO-RAD LABORATORIES (Hercules, Calif.) ICYCLER using BIO-RAD LABORATORIES IQTM SUPERMIX. Cycle times were an initial step at 95° C. for 10 minutes followed by an amplification program of 50 cycles of 3 seconds at 95° C., 5 seconds at 61° C., and 20 seconds at 72° C. with fluorescence acquisition in relative florescent units at the end of each extension. […]

T1 sequence (P27695 whole entry): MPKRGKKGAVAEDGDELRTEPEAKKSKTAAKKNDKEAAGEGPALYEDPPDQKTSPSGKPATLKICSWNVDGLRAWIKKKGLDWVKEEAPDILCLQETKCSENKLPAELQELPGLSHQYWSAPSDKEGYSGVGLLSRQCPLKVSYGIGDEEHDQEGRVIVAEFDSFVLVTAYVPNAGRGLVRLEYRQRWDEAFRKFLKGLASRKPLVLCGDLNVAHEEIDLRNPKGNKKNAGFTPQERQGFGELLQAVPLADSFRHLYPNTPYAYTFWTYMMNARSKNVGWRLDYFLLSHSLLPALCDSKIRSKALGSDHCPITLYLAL

B1: 5′-GGGGTTTTGGGTTTTTTTAATTTTAGGTTGTGGTTGTGGTTGTCGGXGACGTGTTGGTTTTT/3ddC/3′ (nucleic acid)
chain: GGGGTTTTGGGTTTTTTTAATTTTAGGTTGTGGTTGTGGTTGTCGGGACGTGTTGGTTTTT
modifications: tetrahydrofuran abasic site; 3' dideoxy-C; SITE (46)...(47) Tetrahydrofuran is used to modify site 46 and 47. Serves as substrate for APE. Substrate is a commercial product. The 3′ end is modified by 3ddc/3′ to prevent extension by DNA polymerase.Chemically Synthesized
notes: substrate for APE; contains the tetrahydrofuran, an abasic analog (X), and a 3′ dideoxy-C to prevent extension by DNA polymerase
CT of real-time PCR amplification: 26.3
